assay: label from the status in PepcDB records
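Also: failed if final PepcDB status was selected cloned or expressed and not failed if soluble or beyond.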

Sequence	protein production
MIHVREFQASDSDVVLHLLDLKDIINSSSFSEKVFQLSESGDFLGLVAEANQSGKHQVVGCAFLRLLETISRGLHCQIEELAIDKAWLHQGVGKSLMETATSWAKERGVGDIYVDSPYASIAVKEGIDSVFVRDEVLEVAQQYEAEKEELQESLKKQYNTTISKLEKEYEAKKQQQDETIHNLQTQLEDATQYLEEQQAEENELLNIDPSSPRNHTGPYPRGRGFWGTLCFPIRKTCGPGSCLRLPSGPASVRGSTDRSN	not failed
MIHWRNCLASAVPKLAVIAHDLIQVWVCWVALHAARYSMLVHPPGLPYVDWRTLVVLIAQAVVFWRVGLYRGLWRFASVPDLWNIFKSAFSGLIVIVLVLSVTRFEGVPLSVLVVYPFALSVLLGMPRLLYRAWKDYQLIHPVDSSERVLILGAGRTAEALVRDMRRTGAFVPVGFIDDAVYLRGAKIQGLNVLGRLEEVSTIARETAAKLLVIAIPSLDAAGMQRVVAMCESTGLPFRMVPKLIDVLEGRTLPCQLKEVSIEDLLNRKPVIPDWRLIRSWLSGKTVMVTGGGGSIGSEVCRQCARHGASRVVIVEIDELALLTIHSDLRRLFPDIEVLPILGDCGDAAVIAHALRCVRPDAVFHAAAYKQVPLLEEQLREAVRNNVLATENVARHCVAAKIQTFVFISTDKAVEPVNVLGATKRYAEMVCQSFDAKSTGTRFVTVRFGNVLDSAGSVVPLFREQIRQGGPVTVTHPDVTRYFMTISEACQLILQAAALASHGAIYTLDMGEPVRINLLAEQMIRLAGKQPGRDIVIVYTGLRPGEKMHETLFYADENYRPTAHPNILEADVRTFPQEQVLQSVMRLREAVQHYDTVEIESVISMLMPDFHAARHKKETRFETVVPFPAREVRRL	failed
MIIAIPVSENRGKDSPISEHFGRAPYFAFVKVKNNAIADISVEENPLAQDHVHGAVPNFVKEKGAELVIVRGIGRRAIAAFEAMGVKVIKGASGTVEEVVNQYLSGQLKDSDYEVHDHHHHEHH	not failed
MIIDDIINKIKSSNKIAISFHISPDGDSIGSSLGLLNGLRSIGKETYILSKEVVPESFEFLNFAREIDGNHFEVEDNTDLLITLDCGNIERLNFDTSDMISEDKKYTVINIDHHVTNDSFGDLNYINTKAASVGEIVYDLLSKMNISIDRTIAACLYTSILTDTGSFRFSNTTLNTHVVAGNLISTGLDFSEIHRKIFDNKKFEALKLQALVLNDMYLTFNNKLCVMKVTHDFIEKANAEDVDTGDLVSLGLKVNTAEVCMLLKEKDDCIKVSLRSKSYVDVRKIAEKFGGGGHIRAAGLSINSNILDAEKMILSEIQGELLEHHHHHH	failed
MIIGCSASQKLAASVADLLDEPLCPVETRKFPDGERYIRVKEEVEGEVTVVQSTGYPQDENLMELLFMIENLKDLGADYVRAAIPYFGYGRQERRFKSGEAVSAKIVAHLLEAAGADEIVTVNLHENCLSEFFRVPVRELSAMPLIAEHISFLDDPVIIAPDKGALGHAREVSDILGCECDYMEKVRISPEVVETRVSDLDVEGKDAVVVDDIISTGGTIVNAAGILGKCGASSITVCCVHPVLVEDALLKIFSAGVERVIATDTLKSDVSEISVAPLIADVMKD	failed
MIIIKNGALVTPQGLRRADLAMEGDKIVRIAAAIEPGEDDTVQDATDCWVFPGFIDGHTHMQCWTGMDWTADSFETGTRAAVCGGTTTIVDYATADRGVTMPDALVEWHHRADGTCTANYAFHMALAEWNERNRADLSAMREAGVSSFKTYFAYDHLRLDDAETLEVLEELKRVGGILCVHCENGTLVNALQKRVFEQGIHGPEGHALSRPDVCEGEAVSRLLYLAHLAGDAPVNVVHLSTKLGLEAIRAAKARGQKNIYVETCPQYLMLDDTCYLEQGEDGFAGAKYVMSPPLRHAGDRAALREALVAGEIDTIATDHCSFNLHGQKDRGRDDFRAIPNGGPGVEHRPVAIATSFEGQLGPEDLCRLMSENPARVFGMYPRKGCLAEGADADVCVWDPQARWTIRAATQHQAVDYTPLEGFEAHGRAKAVFVNGVLAARDGEPTGAQPGRYVPR	failed
MIILSFYKLLERVICVHSITTYWWKYYLASFFSILVIGIVISSLNINIPYFFLIQIGLVFSLWYLISPIIMILVFKMRRAPQDVTFMVEDLSKKYNVKLSKVYIINDNFLNAFAFGNIIFRGIAVTSPLYESLVQEELAAVLSHEIAHIKNYDPEVMLLTIFSINSIYAALIYYLPLVSLFFLIIYFVILLPSVFYVHRKIEKRADLTAVKVNPDITYWLESSLIKIGYLSRSIPTNMLRYVPPIQIFLAKEFIVNHIVDEKSVLSFRTHPSLKERLLYLSQYEKQKMYYI	failed
MIIMLSEYLEEFKEYLERFKNIDINFSDVLKMSKKFIIWRLKQIFGDSSTIFTNISSEITIFDKIFQMIDYDIDGEVEKRLPKDESRFMIGVRREKEIEIKKEIITNLLDFLLIILLSHTPYFNAFVRKYAEIKKIKVIKKLPNKISVWEFIKIASRSRINDLHLERLDLENGFVDITKIKEIFAKEIIRVELMKLGENIKKRKLPDDSVVKELLNEISDYLKDKVKYEQISGIKALNYKGNIPLEWHPPCIRGILNDILSGGSPSHYARRSFVVYWFCAKFNPNLRPLDKNGNLVNVSATDIASEEEIERFIDELIEMLFKNVEDFDEKKTRYYIMHNIGYKVGHGRLTHCEYCKNWQDDGGKGLSYYCKPDELCKKKFIIHPLDYLCYNINKHLKKERFKKIKKEDKNGDNKLEHHHHHH	not failed
MIIMVTEVDVLVIGAGPAGSTAAKHAALGGADVLLIDKKSEIGAPKRCAEGVSIGGLESLGIEPNPRWITKKLDGVRMVSPNGTDVWLTSDKVELPEAGYILERKVFDKFMAMDAARAGSRIMVKTIATGMERTDDGYLVSAECMGEKFEIKARIVIAADGPESRVARWAGLNTATRPKDMESAAQFEMVGVEMEDNNCIEFYFGSVAPGGYALDIPEGDDIANVGLGVLSTETDKSAYEHLLEFVESCPATRNAQPVELNIGGDPVGGMPKKLVADSLMVVGDAAGQVNPLTGGGIISGMKGGMLAGQVAAAAVSEGDVTARRLGEYERLCREEIGDEISKYLKVKEYLLTLSDSELDSIAEAFQDVEFEKVSTTELVKKLIKVSPKALLKLGKLFLEHHHHHH	failed
MIIPDLFRLNDWSTRRFNLFIWSILVAYDFSFISNVPLYSIEILSKILGFVILTFIPGYIILRIFKVHDIDRVVTLLLAIGLSLSFIMIFGFTVNMFLPYIGVSKPISTFPLFYSLNISILVLMIIYYFRDKKFNSSQNQLRITFSPMLFYFILLPLFSILGTESVNHYNFNMPVLILLFVISLSPILIALDRISRDLYPFMILSISLAILYNMNLISTHLWSYDIFYEAHTSKYVLENGIWNPGNKTMVPLLLFTILSPVYSLICDLNVIWVFKIIFPFFFSLTPLALYYVYKELDFGNYKIDSEIAMLSVFVFIFFYGFYKDMPDKQHIAELFLALILILSIFNTQKRILLFIFSFSLVVSHYGISYFFVFSLIFVSMMSRFRVNADTSFLTPTYTLLFSVLTFSWYIYISAGDVFEVITQVGYHFLSGIKDIFQANNDGRSASAYLSYLSNGILWVIYMLIHLILQFFIFIGVLNLLLSIMHNKTKSFEIALLTIIFYAFLFVQFFKTYGMGLDRILQITLILLSPLSIWGYSFCVKNLNSVYARIISKRIYRNKENGNLNLIFESTLTRNEAINKNHITNLSKKARLCFSIFLMIFFVFNSGFIFWMTGYPLPGYCININPNSGWPVYSESEICGVDWLKSHENEHNRIAVFNQWDTIKSRDGLLVAENFYSKDLIPIQTNTTTLYNSYLFLGKYSVDKVEDGEEDVDLQDTLFYNSTLKNSNKIYNSEKSHLYLAE	failed
MIIPMNNKHPLPTPLVSIIIPVYNVEKYLYRCVKSILSQDYYDYEIILVDDGSTDGSGMICDELTEQHGHISVIHKPNGGQGSARNAGLNHAKGKYIWFIDSDDYISPHSLSVIMSQITQGDFDALFFPYIKSNGNILIGEAVGKYHAGVYRGQQLLLEGLVNMSMCTIVSLRSRWIDNRIFFREDIHFEDFEINPRVLKFLERAIFLDSNIIPYIYYTRLGSTMNQLDPQKRMRQTEDFLRIEKSWKEWFNLDSPEPNSYDMLMLRTGTNMLHRNLLNFVRNSNFSISTKLKLYAQYRKKGVFSWFYNGYRRDPYVGCTSVRVFWNTIGRSYILFSLFSIVEEIWKKIRK	failed
MIIRIKHYGEVKIEDSKNLLLNLIENRIGIDNICNGKGTCGKCKVRFRQGVPEATSADLRYLSVEELEEGVRLACQVKPQKGMEIDVTLSNSFDRKNTVLRRDDQVALDSGLSGISLTIPQPSLEDERGDWDRIIDEYRKVMPEQGLALPSLGVLERLPGTLRKLDYRITAVTWQNRVIDVQPGHDTALHGLAVDIGTTSVAVALIDLKTGEVLGSVSAENGQTAFGGDVISRIAYAGEGLKNRLQLTAAVRSTINTLIDELVLQHEIVRNSIYKMTIVANTTMSHLFLGLDVSNLAVSPYVSVYNQALEFSAKELGLGSNPEAVVQILPNIGSFVGGDTVGALLGAPEVLTQGNHLLLDLGTNCELVLKTEKMMLACSTAAGPAFEGAGIFHGMRAKPGAIEGIRIHEEGVELRVIGDEEALGICGSGLIDGIAQMRQAGIINRKGAFVDPDHKDCSLSDELKSRIRKKEDYWEFVFAFGRQHKKDISLGQRDIEALQLAKGAVCAGIKTLVSLAGISLRDLDSIVMAGTFATYLKKESILSIGLTPHTDPEKIKMAGNAAHLGAIRTLLNQGTFAEGAELARRIQHIELGGDKTFTNFFMRSMYLEPTD	failed
MIIRPIIKNDDQAVAQLIRQSLRAYDLDKPDTAYSDPHLDHLTSYYEKIEKSGFFVIEERDEIIGCGGFGPLKNLIAEMQKVYIAERFRGKGLATDLVKMIEVEARKIGYRQLYLETASTLSRATAVYKHMGYCALSQPIANDQGHTAMDIWMIKDL	failed
MIISFVIQVGLFPDSLERKVIRHIENGDHLTCFLFLNYLHVLIQGFSFGGYRVLYKERELSRICPAIRFQRKSFTEVRMILSHHPSFSLVNDPQEIAQIAEWGEEQIAQYKERVTGEGKQRDIDRGKPMAQASLDEAAFLLNLASLEGTWDESLERVAQCYKEAGLNDIAKFVLYRD	failed
MIITIPIKNQKDIGTPSDSVVVLGYFDGIHKGHQELFRVANKAARKDLLPIVVMTFNESPKIALEPYHPDLFLHILNPAERERKLKREGVEELYLLDFSSQFASLTAQEFFATYIKAMNAKIIVAGFDYTFGSDKKTAEDLKNYFDGEVIIVPPVEDEKGKISSTRIRQAILDGNVKEAGKLLGAPLPSRGMVVHGNARGRTIGYPTANLVLLDRTYMPADGVYVVDVEIQRQKYRAMASVGKNVTFDGEEARFEVNIFDFNQDIYGETVMVYWLDRIRDMTKFDSVDQLVDQLKADEEVTRNWS	not failed
MIIWSGWGFLVAIIVIINTLLGKAIFGSITGDATYFQDHSWPMAVMFIISGVMSWYLGKYINKPDGKVYIDAETGEKVMFNKKHSLFFIKMEYWGPILGVIAIVTLITR	failed
MIKFYQYKNCTTCKKAAKFLDEYGVSYEPIDIVQHTPTINEFKTIIANTGVEINKLFNTHGAKYRELDLKNKLQTLSDDEKLELLSSDGMLVKRPLAVMGDKITLGFKEDQYKETW	not failed
MIKGGGGKSSGYSADLMVCFPSRAHLSLPSKSISSPSSSFNRRQNAPHHRRSISKLSSSGGGVRQNRGGGREVVEEPTSPKVTCAGQIKVRSSKRDGGGKNWQSLMAEIEKIHRSKSESKFFGIKRDVMGFLTCLRDFDFRCFGAFPPVDIISDDEEEDEEEEEEDEEEDEDESSGTVFSKWLMVLHEKQNNEECVDGKENVFSDVETAVPPPNALLLMRCRSAPVKNWSEEKKEETEEGDNRVKQSGEEEEEEKDRVGNKKDLRSLMEEEKKMNLVVMNYDTNYYKLSNDIAKETWVVGGIQDPLFRSRSWKK	failed
MIKIAVIAGGSFDCLPEPADLYVGVDAGSLRLLDHSLPLDWAIGDFDSVTSEELGQIREMAEQFLQAPAEKDDTDLELALKEIFKAYPQAQVRIYGALGGRMDHMMSNLFLVAEPDLAAYMEQIELVDSQNVVRFRPAGSHRISPIAGMKYISFMPSDQSHLTIRYAKYPLDASNYFFKKCYASNEFIDRDIDIQLDQGYVVLIYSKDKD	failed
